Source: PMC9763423

Target: JOSD1 (UniProt Q15040)
Experiment: co-immunoprecipitation, immunoblot
Settings: reference: Flag-MCL1 WT; sites S159

- binding against the reference: stronger
Substance: MCL-1 (from UniProt Q07820) Flag-MCL1 S159A
